B1: BAG family molecular chaperone regulator 5 (Rattus norvegicus (Rat)), Q5QJC9 (parent)
chain: MDMGNQHPSISRLQEIQREVKSIEQQVVGFSGLSDDKNYKRLERILTKQLFEIDSVDTEGKGDIQQARKRAAQDTERLLKELEQNANHPHRIEIKNIFQEAQALVKEKTVPFYSGSNCVTSEFEEAIQDIILRLTHVKTGGKISLRKARYHTLTKICAVQEIIEDCVRKQPSLPLSEDVHPSVAKINSVMCEVNKARGTLIALLMGVDSSETCRHLSCVLSGLMADLDALDVCGRTEIRNYRREVVEDINKLLKYLDLEEEADNTHAFDLGQNHSIIKIENVLKRMREMKNELLQAQSPPELYLRSKTELQGLIGQLDEVSLEKNPCIREARRRAVIEVQTLITYLDLKEALEKRKLFPCEETPPHKAVWNVLGNLSEIQGEVLSFGGNRTDKNYIRLEELLTKQLLTLDAVDPLGEEKCKAARKQAVKLAQNILSYLDMKSDEWEY

In this experiment the parent is B1. The note with it: with chip_human STUB1, Q9UNE7.
Sequence of chip_human STUB1, Q9UNE7 (Q9UNE7 whole entry): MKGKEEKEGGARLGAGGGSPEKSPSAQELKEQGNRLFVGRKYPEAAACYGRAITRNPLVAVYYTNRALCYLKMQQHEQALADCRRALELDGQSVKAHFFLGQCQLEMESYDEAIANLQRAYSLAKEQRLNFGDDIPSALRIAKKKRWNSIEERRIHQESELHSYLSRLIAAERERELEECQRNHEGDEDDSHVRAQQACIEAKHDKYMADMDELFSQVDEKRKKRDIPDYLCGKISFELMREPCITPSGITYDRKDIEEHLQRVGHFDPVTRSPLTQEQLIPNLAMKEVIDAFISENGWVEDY
For the variant D54A;R68A;D228A;R242A;D318A;R332A;D410A;R424A, the “effect of a mutation on the interaction” value is “disrupting interaction”.

The record behind these values is IntAct's records for PubMed 21358815.
